# Data from publication PMC4109720.
# Legend:
# myc-JIP1-ΔLIR (human) = myc-JIP1-ΔLIR (human) (UniProt Q9UQF2); test: co-IP
# myc-JIP1-F336A (human) = myc-JIP1-F336A (human) (UniProt Q9UQF2); test: co-IP
substance,measurement,setting,value
GFP-LC3 (from UniProt Q9GZQ8 1-120) (natural protein),percent of the GFP-LC3 binding of wildtype myc-JIP1 (densitometry of co-IP),myc-JIP1-ΔLIR (human),20%
same,percent of the GFP-LC3 binding of wildtype myc-JIP1 (densitometry of co-IP),myc-JIP1-F336A (human),20%
